T1: hTIGIT mutant H76A (human, UniProt Q495A1)
T1 sequence (TIGIT, looked up): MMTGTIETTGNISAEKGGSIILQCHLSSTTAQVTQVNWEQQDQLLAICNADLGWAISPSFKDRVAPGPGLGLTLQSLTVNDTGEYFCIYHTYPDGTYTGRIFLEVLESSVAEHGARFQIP

T2: human TIGIT on activated human primary T cells (human, UniProt Q495A1 22-244)
T2 construct: also called Human T cell
T2 sequence: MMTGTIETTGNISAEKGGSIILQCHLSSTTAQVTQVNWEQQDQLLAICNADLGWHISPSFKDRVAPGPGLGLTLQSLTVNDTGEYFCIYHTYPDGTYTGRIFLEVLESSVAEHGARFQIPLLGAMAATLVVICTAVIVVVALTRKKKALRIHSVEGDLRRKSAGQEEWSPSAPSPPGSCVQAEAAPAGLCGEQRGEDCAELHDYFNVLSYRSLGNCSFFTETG

T3: human TIGIT protein (human, UniProt Q495A1 22-141, limits assumed)
T3 construct: Recombinant protein (Genentech) used in ELISA screening and as SPR analyte; also called TIGIT antigen
T3 sequence: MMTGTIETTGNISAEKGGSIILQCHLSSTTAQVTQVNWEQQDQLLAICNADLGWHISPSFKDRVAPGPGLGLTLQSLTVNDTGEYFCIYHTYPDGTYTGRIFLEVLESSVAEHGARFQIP

T4: full-length human TIGIT on CHO cells (human, UniProt Q495A1 22-244)
T4 construct: also called CHO-hTIGIT; hu TIGIT
T4 sequence: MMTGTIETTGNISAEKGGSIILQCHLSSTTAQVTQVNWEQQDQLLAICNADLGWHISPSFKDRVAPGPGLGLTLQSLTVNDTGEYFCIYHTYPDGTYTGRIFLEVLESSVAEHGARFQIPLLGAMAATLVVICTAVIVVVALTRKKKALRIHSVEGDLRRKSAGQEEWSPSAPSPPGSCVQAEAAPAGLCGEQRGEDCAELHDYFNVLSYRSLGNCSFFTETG


Assays:
[1] = molecular target: T5, cynomolgus monkey (cyno) TIGIT protein (cynomolgus monkey, UniProt A0A7N9I9V4 89-209); test: SPR, monovalent affinity
[2] = molecular target: T6, cynomolgus TIGIT on CHO cells (cynomolgus monkey, UniProt A0A7N9I9V4 89-312); test: FACS blocking assay: labelled PVR-Fc (blocked ligand) on CHO cells expressing cyno TIGIT
T6 construct: whole, on cells; also called CHO-cyTIGIT; cyTIGIT
Procedure: (§1) These studies were further validated in CHO-TIGIT PVR blocking experiments in which TIGIT-expressing CHO cells were incubated with labeled PVR-Fc fusion protein in the presence of anti-TIGIT antibody or an human IgG1 control (FIG. 4A).

[3] = molecular target: T5, cynomolgus monkey (cyno) TIGIT protein; test: SPR, captured mAb
Procedure: (§2) Briefly, a series S CM5 biosensor chip was activated with N-ethyl-N′-(3-dimethylaminopropyl)-carbodiimide hydrochloride (EDC) and N-hydroxysuccinimide (NHS) reagents according to the supplier's (GE Healthcare Biosciences, Piscataway, N.J.) instructions, and a human antibody capture kit was applied to couple goat anti-human Fc IgGs in order to achieve approximately 10,000 response units (RU) on each flow cell, followed by blocking un-reacted groups with 1M ethanolamine.
(§3) (flow rate: 30 μl/min) with no regeneration between injections. The sensorgrams were recorded and evaluated by BIAcore™ T200 Evaluation Software (version 2.0) after subtraction of reference cell signal. Association rates (kₒₙ) and dissociation rates (koff) were calculated using a simple one-to-one Langmuir binding model. The equilibrium dissociation constant (KD) was calculated as the ratio koff/kₒₙ.
(§4) The first humanized versions, h6B2, L1H1, h10A5.L1H1, h7E7, L1H1, and h15C8.L1H1, which contain both rat CDRs and framework residues at Vernier positions, and the fully humanized versions, h6B2.L2H5, h10A5.L4H4, h7E7.L5H9, and h15C8.L5H9, which contain only rat CDRs were subject to BIAcore affinity measurement by comparison with original rat antibodies, rat6B2, rat10A5, rat7E7 and rat 15C8. For binding affinity determinations of TIGIT antibodies against human TIGIT, cynomolgus monkey TIGIT and human alanine-scanned TIGIT mutants by single-cycle kinetics, Surface Plasmon Resonance (SRP) measurement with a BIACORE™-T200 instrument was used, as described above.

hTIGIT mutant H76A [4] = molecular target: T1, hTIGIT mutant H76A; test: SPR (BIACORE) KD normalized to WT, N=2
hTIGIT mutant H76A [5] = molecular target: T1, hTIGIT mutant H76A; test: SPR (BIACORE), N=2
[6] = molecular target: T2, human TIGIT on activated human primary …; test: FACS, activated human T cells
Procedure: The OMT- and SD-derived anti-TIGIT clones were also tested for binding to human primary T cells by FACS analysis. Human PBMC were activated for with plate-bound anti-CD3 (5 μg/ml) and soluble anti-CD28 (2 μg/ml) for 2 days as described in Yu et al. Nature Immunology. 10: 48-57, 2009, which is incorporated herein by reference in its entirety. Cells were then washed and incubated with incubated with each anti-TIGIT antibody at the indicated concentrations and then detected via a FITC-labeled anti-hIgG antibody. Cells were also stained with anti-CD4, anti-CD8, and anti-CD25 (BD bioscience). Human CD4+(CD25+CD4+) and human CD8+(CD25+CD8+) T cells were assessed for binding by the anti-TIGIT clones by FACS. All samples were acquired on LSR-II or LSR-Fortessa instruments (BD Biosciences) and analyzed using FlowJo software (Treestar).

human TIGIT protein [7] = molecular target: T3, human TIGIT protein; test: SPR, monovalent affinity
[8] = molecular target: T4, full-length human TIGIT on CHO cells; test: FACS, PVR-Fc on CHO-TIGIT cells; competitor PVR-Fc
Procedure: as §1

human TIGIT protein [9] = molecular target: T3, human TIGIT protein; test: SPR, captured mAb
Procedure: as §2, §3, §4

human TIGIT protein [10] = molecular target: T3, human TIGIT protein; test: SPR, bivalent affinity
[11] = molecular target: T5, cynomolgus monkey (cyno) TIGIT protein; test: SPR, bivalent affinity
[12] = molecular target: T4, full-length human TIGIT on CHO cells; test: FACS, CHO cells expressing TIGIT
[13] = molecular target: T6, cynomolgus TIGIT on CHO cells; test: FACS on CHO cells expressing cyno TIGIT, FITC anti-hIgG detection
Procedure: Additional in vitro binding studies of the OMT- and SD-derived anti-TIGIT antibody clones were conducted. The OMT- and SD-derived anti-TIGIT clones were tested for binding to human and cyno TIGIT expressed on the surface of CHO cells by FACS analysis. CHO cells were transfected with full-length human TIGIT (CHO-hTIGIT) or cynomologous TIGIT (CHO-cyTIGIT). The TIGIT-expressing CHO cells were incubated with each anti-TIGIT antibody at the indicated concentrations and then detected via a FITC-labeled anti-hIgG antibody (see FIG. 1A) using standard methods. The results, shown in Table 6 and FIGS. 1B-1E, corroborate the results from the BIACORE™ analysis, described above.

T6 sequence (A0A7N9I9V4 entry or part of it): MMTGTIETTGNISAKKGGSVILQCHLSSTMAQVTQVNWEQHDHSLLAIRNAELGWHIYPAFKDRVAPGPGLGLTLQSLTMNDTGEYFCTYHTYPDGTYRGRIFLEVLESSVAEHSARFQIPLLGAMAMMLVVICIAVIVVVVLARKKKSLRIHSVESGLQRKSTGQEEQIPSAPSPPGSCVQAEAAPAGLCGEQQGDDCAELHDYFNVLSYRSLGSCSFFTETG
T5 sequence (A0A7N9I9V4 entry or part of it): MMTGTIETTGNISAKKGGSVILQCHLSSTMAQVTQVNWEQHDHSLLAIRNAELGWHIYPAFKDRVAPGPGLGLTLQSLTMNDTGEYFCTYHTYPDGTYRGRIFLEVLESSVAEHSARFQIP

Binder | Kd [1] | binding result [2] | Kd [3] | koff [3] | kon [3] | Binding affinity drop vs. WT (hTIGIT mutant H76A [4]) | Kd (hTIGIT mutant H76A [5]) | EC50 [6] | Kd (human TIGIT protein [7]) | IC50 [8] | Kd (human TIGIT protein [9]) | koff (human TIGIT protein [9]) | kon (human TIGIT protein [9]) | Kd (human TIGIT protein [10]) | Kd [11] | EC50 [12] | IC50 (read off the curve) [2] | EC50 (read off the curve) [13]
h7E7.L5aH9a (antibody, V domains shown, Final humanized 7E7; keeps rat VH I47 and VL Y71; FR/HVR pieces) VH: EVQLVQSGAEVKKPGASVKVSCKASGYTFTEYSIYWVRQAPGQRLEIMGRIDPKNGRTYYVDKFKNRVTITRDTSASTAYMELSSLRSEDTAVYYCARIYGFYFDFWGQGTLVTVSS VL: DIQLTQSPSFLSASVGDRVTITCKGSQNVNKYLVWYQQKPGKAPKLLIYNTDNLQSGVPSRFSGSGSGTEYTLTISSLQPEDFATYYCYQYNNGFTFGQGTKVEIK | – | – | 310 pM | 0.000182 s⁻¹ | 591000 M⁻¹ s⁻¹ | 2.5 fold | 1000 pM | – | – | – | – | – | – | – | – | – | – | –
rat7E7 (antibody, V domains shown, SD rat-derived; rat V domains as FR/HVR pieces; also called 1.7E7; Chimeric 1.7E7) VH: EVQLQQSGPELQRPGASVKLSCKATGYTFTEYSIYWVKQRPKQSLEIIGRIDPKNGRTYYVDKFKNRATLTADTSSNTAYMQLSSLTSEDTATYFCTRIYGFYFDFWGQGVMVTASS VL: NIHLTQSPSLLSASVGDRVTLSCKGSQNVNKYLVWYQQKLGEAPKLLIYNTDNLQSGIPSRFSGSGSGTDYTLTISSLQPEDAATYFCYQYNNGFTFGSGTKLEIK | 67 pM | – | 70 pM | 2.7e-05 s⁻¹ | 399000 M⁻¹ s⁻¹ | – | – | 110 pM | ≤ 18 pM | 40 pM | 30 pM | 1.8e-05 s⁻¹ | 568000 M⁻¹ s⁻¹ | ≤ 4 pM | ≤ 9 pM | 100 pM | ~300 pM | ~300 pM

Next, values leading:

Kd [1] | binding result [2] | Kd [3] | koff [3] | kon [3] | Binding affinity drop vs. WT (hTIGIT mutant H76A [4]) | Kd (hTIGIT mutant H76A [5]) | EC50 [6] | Kd (human TIGIT protein [7]) | IC50 [8] | Kd (human TIGIT protein [9]) | koff (human TIGIT protein [9]) | kon (human TIGIT protein [9]) | Kd (human TIGIT protein [10]) | Kd [11] | EC50 [12] | IC50 (read off the curve) [2] | EC50 (read off the curve) [13] | Binder
> 100000 pM | no binding (tested: about 20 nM) | – | – | – | – | – | – | – | – | – | – | – | – | – | – | – | – | 4.1A4.C96Y.Q1E (antibody, V domains shown, FR/HVR pieces in order; also called 4.1A4.Q1E.C96Y) VH: EVQLVQSGSELKKPGASVKVSCKASGYTLTNYPMNWVRQAPGRGLEWMGWINTNTGSPAYAQDFTERFVFSLDTSVTTAYLQISSLKAEDTAVYYCARTAITSVYHFDYWGQGTLVTVSS VL: DIQLTQSPSFLSASVGDRVTITCRASQGISSYLAWYQQKPGKAPRVLIYGATTLQSGVPSRFSGSESGTEFTLTISSLQPEDLATYYCQKLNSHPYSFGQGTKVEIK
290 pM | – | 290 pM | 0.000202 s⁻¹ | 688000 M⁻¹ s⁻¹ | – | – | 90 pM | 35 pM | 80 pM | 40 pM | 3.5e-05 s⁻¹ | 997000 M⁻¹ s⁻¹ | ≤ 27 pM | 91 pM | 520 pM | – | – | rat6B2 (antibody, V domains shown, SD rat-derived; rat V domains as FR/HVR pieces; also called 1.6B2; Chimeric 1.6B2) VH: QVSLKESGPGILQPSHTLSLTCSFSGFSLSTYGMGVSWIRQPSEKGLEWLASIWWNGNTYYNPSLKSRLTVSKDASNDQAFLNVTSVDTTDTATYYCAHTGGAVITWFAYWGQGTLVTVSS VL: NIVMTQSPKSMSISVGDRVTMNCKASQSVGKNIAWYQQKPGQSPKLLIYYASNRYTGVPDRFTGGGSGTDFTLTINTVQAEDAAFFYCQHIYNSPYPFGTGTKLEIK
